The labels stand for the following.
T1: Plasmodium falciparum histidine-rich protein II (HRP-II) (Plasmodium falciparum, UniProt P05227 22-332)
T1 construct: Coating antigen of all ELISAs; also called HRP-II protein; MA-HRPII Ag protein
T1 sequence (looked up): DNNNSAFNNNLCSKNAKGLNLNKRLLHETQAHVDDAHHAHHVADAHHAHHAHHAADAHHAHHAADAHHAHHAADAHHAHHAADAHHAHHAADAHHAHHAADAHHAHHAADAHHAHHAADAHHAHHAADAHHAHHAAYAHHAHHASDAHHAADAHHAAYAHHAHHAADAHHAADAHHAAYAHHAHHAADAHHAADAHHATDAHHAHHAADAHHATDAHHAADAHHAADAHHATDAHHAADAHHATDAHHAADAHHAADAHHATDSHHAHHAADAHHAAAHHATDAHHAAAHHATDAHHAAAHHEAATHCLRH

B1: Mutation 1-18 (antibody, mouse IgG2b, kappa, V domains shown)
VH: EVQLQQSGPEVVKPGASVKISCKASGYTLTDYYMNWVKQSHGKGLEWIGDLNPIQGGTAYNQKFRDKATLTVDKSSNTAYMELRSLTSEDSALYYCTKGAEDYWGQGTTLTVSS
VL: DVVLTQTPLSLSVTIGQPASISCKSSQSLLYSQGKIYLNWFQQRPGQSPKRLMYQISKLDPGIPDRFSGSGSETDFTLKISRVEAEDLGVYYCLQGTYTPQTFGGGTKLEIKR
notes: Mutation 1 as framework
B2: Mutation 1-1 (antibody, mouse IgG2b, kappa, V domains shown)
VH: B1 VH with L29I, L51I, K98R
VL: B1 VL with L29I, L30I, D60E, T99Y
notes: Mutation 1 as framework
B3: Mutation 1-31 (antibody, mouse IgG2b, kappa, V domains shown)
VH: B1 VH with Y27T, L51I, Q55N, N61Q
VL: B1 VL with Q33N, D60E
notes: Mutation 1 as framework
B4: Mutation 1-35 (antibody, mouse IgG2b, kappa, V domains shown)
VH: B1 VH with L29I, L51V, N61Q, K98R
VL: B1 VL with Q33N, I56V, D60E, G96A, T99Y
notes: Mutation 1 as framework
B5: Mutation 1-15 (antibody, mouse IgG2b, kappa, V domains shown)
VH: B1 VH with L29I, K98R
VL: B1 VL with L30I, Q33N, I56L, D60E
notes: Mutation 1 as framework
B6: Mutation 1-14 (antibody, mouse IgG2b, kappa, V domains shown)
VH: B1 VH with L51V, Q55N
VL: B1 VL with L30I, Q33N, I56L, G96A
notes: Mutation 1 as framework
B7: Mutation 1-10 (antibody, mouse IgG2b, kappa, V domains shown)
VH: B1 VH with L29I, L51I, Q55N, K98R
VL: B1 VL with Q33N, I56V, T99Y
notes: Mutation 1 as framework
B8: Mutation 1-26 (antibody, mouse IgG2b, kappa, V domains shown)
VH: B1 VH with Y27T, L51V, K98R
VL: B1 VL with I56L, T99Y
notes: Mutation 1 as framework
B9: Mutation 1-16 (antibody, mouse IgG2b, kappa, V domains shown)
VH: B1 VH with L29I, L51I, K98R
VL: B1 VL with I56V, T99S
notes: Mutation 1 as framework
B10: Mutation 1-28 (antibody, mouse IgG2b, kappa, V domains shown)
VH: B1 VH with L29I, L51I, N61Q
VL: B1 VL with L29I, L30I, Q33N, I56V, G96A
notes: Mutation 1 as framework
B11: Mutation 1-47 (antibody, mouse IgG2b, kappa, V domains shown)
VH: B1 VH with Y27S, L29I, L51V, Q55N
VL: B1 VL with L29I, I56V, D60E, G96A, T99S
notes: Mutation 1 as framework
B12: Mutation 1-21 (antibody, mouse IgG2b, kappa, V domains shown)
VH: B1 VH with Y27T, K98R
VL: B1 VL with I56L, D60E
notes: Mutation 1 as framework
B13: Mutation 1-39 (antibody, mouse IgG2b, kappa, V domains shown)
VH: B1 VH with Y27T, Q55N, N61Q
VL: B1 VL with Q33N, I56L, D60E, G96A
notes: Mutation 1 as framework
B14: Mutation 1-13 (antibody, mouse IgG2b, kappa, V domains shown)
VH: B1 VH with Y27S, L51I
VL: B1 VL with L29I, D60E, T99Y
notes: Mutation 1 as framework
B15: Mutation 1-32 (antibody, mouse IgG2b, kappa, V domains shown)
VH: B1 VH with L29I, L51V, N61Q, K98R
VL: B1 VL with Q33N, I56L, G96A, T99Y
notes: Mutation 1 as framework
B16: Mutation 1-17 (antibody, mouse IgG2b, kappa, V domains shown)
VH: B1 VH with L29I, L51V, Q55N
VL: B1 VL with I56V, D60E, T99Y
notes: Mutation 1 as framework
B17: Mutation 1-2 (antibody, mouse IgG2b, kappa, V domains shown)
VH: B1 VH with Y27S, L51V, N61Q
VL: B1 VL with Q33N, I56L, G96A
notes: Mutation 1 as framework
B18: Mutation 1-23 (antibody, mouse IgG2b, kappa, V domains shown)
VH: B1 VH with Y27T, L51V, K98R
VL: B1 VL with L29I, L30I, Q33N, I56V, D60E, T99Y
notes: Mutation 1 as framework
B19: Mutation 1-5 (antibody, mouse IgG2b, kappa, V domains shown)
VH: B1 VH with Y27S, L51V, Q55N, K98R
VL: B1 VL with L29I, I56V, D60E
notes: Mutation 1 as framework
B20: Mutation 1-25 (antibody, mouse IgG2b, kappa, V domains shown)
VH: B1 VH with L29I, L51I, K98R
VL: B1 VL with D60E
notes: Mutation 1 as framework
B21: Mutation 1-29 (antibody, mouse IgG2b, kappa, V domains shown)
VH: B1 VH with L29I, L51V, K98R
VL: B1 VL with L29I, L30I, I56V, D60E, T99Y
notes: Mutation 1 as framework
B22: Mutation 1-7 (antibody, mouse IgG2b, kappa, V domains shown)
VH: B1 VH with L29I, L51I, Q55N, N61Q, K98R
VL: B1 VL with L30I, Q33N, D60E, G96A, T99Y
notes: Mutation 1 as framework
B23: Mutation 1-33 (antibody, mouse IgG2b, kappa, V domains shown)
VH: B1 VH with Y27T
VL: B1 VL with Q33N, I56L, D60E, T99S
notes: Mutation 1 as framework
B24: Mutation 1-6 (antibody, mouse IgG2b, kappa, V domains shown)
VH: B1 VH with L29I
VL: B1 VL with L30I, Q33N, G96A, T99S
notes: Mutation 1 as framework
B25: Mutation 1-45 (antibody, mouse IgG2b, kappa, V domains shown)
VH: B1 VH with L29I, Q55N
VL: B1 VL with L29I, I56L, D60E, T99Y
notes: Mutation 1 as framework
B26: Mutation 1-48 (antibody, mouse IgG2b, kappa, V domains shown)
VH: B1 VH with L29I, K98R
VL: B1 VL with T99Y
notes: Mutation 1 as framework
B27: Mutation 1-20 (antibody, mouse IgG2b, kappa, V domains shown)
VH: B1 VH with Y27S, L29I, L51V
VL: B1 VL with L29I, L30I, I56L, T99Y
notes: Mutation 1 as framework
B28: Mutation 1-46 (antibody, mouse IgG2b, kappa, V domains shown)
VH: B1 VH with L29I, L51I, Q55N, K98R
VL: B1 VL with L29I, I56V
notes: Mutation 1 as framework
B29: Mutation 1-50 (antibody, mouse IgG2b, kappa, V domains shown)
VH: B1 VH with L29I, L51V, N61Q, K98R
VL: B1 VL with Q33N, I56L, D60E, G96A, T99Y
notes: Mutation 1 as framework
B30: Mutation 1-11 (antibody, mouse IgG2b, kappa, V domains shown)
VH: B1 VH with L29I, L51V, Q55N
VL: B1 VL with L29I, L30I, Q33N, I56V, D60E, G96A
notes: Mutation 1 as framework
B31: Mutation 1-41 (antibody, mouse IgG2b, kappa, V domains shown)
VH: B1 VH with L51V, Q55N, N61Q
VL: B1 VL with L29I, Q33N, I56V, D60E, G96A, T99Y
notes: Mutation 1 as framework
B32: Mutation 1-19 (antibody, mouse IgG2b, kappa, V domains shown)
VH: B1 VH with Y27T, L51I, K98R
VL: B1 VL with L29I, L30I, D60E, G96A, T99S
notes: Mutation 1 as framework
B33: Mutation 1-37 (antibody, mouse IgG2b, kappa, V domains shown)
VH: B1 VH with L29I, L51I, Q55N, N61Q
VL: B1 VL with Q33N, D60E, G96A, T99Y
notes: Mutation 1 as framework
B34: Mutation 1-22 (antibody, mouse IgG2b, kappa, V domains shown)
VH: B1 VH with L29I, L51I, N61Q
VL: B1 VL with L29I, L30I, Q33N, I56V, G96A, T99S
notes: Mutation 1 as framework
B35: Mutation 1-4 (antibody, mouse IgG2b, kappa, V domains shown)
VH: B1 VH with L51I, Q55N, N61Q
VL: B1 VL with L29I, Q33N, I56V, G96A, T99Y
notes: Mutation 1 as framework
B36: Mutation 1-8 (antibody, mouse IgG2b, kappa, V domains shown)
VH: B1 VH with L29I, L51V
VL: B1 VL with I56L, G96A
notes: Mutation 1 as framework
B37: Mutation 1-49 (antibody, mouse IgG2b, kappa, V domains shown)
VH: B1 VH with L51I
VL: B1 VL with D60E, G96A
notes: Mutation 1 as framework
B38: WT 1-1 (antibody, mouse IgG2b, kappa, V domains shown)
VH: B1 VH with L29I, D31E, L51V, Q55N, A59P, N61Q, D102E
VL: B1 VL with Q33N, L38I, L59I, D60E, G96A, T99S, Q101N
notes: WT as framework
B39: WT 1-5 (antibody, mouse IgG2b, kappa, V domains shown)
VH: B1 VH with L29I, D31E, A59P, N61Q, K98R, D102E
VL: B1 VL with L38I, I56L, L59I, G96A, T99S, Q101N
notes: WT as framework
B40: WT 1-2 (antibody, mouse IgG2b, kappa, V domains shown)
VH: B1 VH with Y27T, D31E, L51I, A59P, K98R, D102E
VL: B1 VL with L29I, L38I, I56L, L59I, G96A, Q101N
notes: WT as framework
B41: WT 1-3 (antibody, mouse IgG2b, kappa, V domains shown)
VH: B1 VH with Y27S, L29I, D31E, Q55N, A59P, N61Q, D102E
VL: B1 VL with L29I, L30I, Q33N, L38I, I56V, L59I, D60E, T99Y, Q101N
notes: WT as framework
B42: WT 1-4 (antibody, mouse IgG2b, kappa, V domains shown)
VH: B1 VH with Y27T, D31E, L51V, Q55N, A59P, D102E
VL: B1 VL with L30I, L38I, L59I, D60E, G96A, Q101N
notes: WT as framework

Positions count from the first letter of the chain named.

One assay concerns the target T1, Plasmodium falciparum histidine-rich …. The experiment in a line: indirect ELISA, four antigen coating concentrations. For orientation: In an ELISA, binding on a coated surface is turned into a signal by an enzyme label.
In turn, B1 gave a Kd of 0.051 nM.
Still for that read-out and setting: then B2, with 0.301 nM.
Turning to B3, the equilibrium dissociation constant (Kd) was found to be 0.0946 nM.
Same read-out and setting: then B4, with 0.521 nM; and B5, with 0.245 nM; and B6, with 0.226 nM.
Molecule B7 returned a dissociation constant Kd of 0.827 nM.
The same measure, in the same setting: next, B8: 0.211 nM; B9: 0.502 nM.
The molecule B10 yielded a Kd of 0.012 nM.
Same read-out and setting: next, B11: 0.0828 nM.
Turning to B12, the Kd amounted to 0.0828 nM.
The same measure, in the same setting: then B13, with 0.233 nM.
On the same count and under the same terms, next, B14: 0.0865 nM; B15: 0.244 nM.
In turn, B16 registered a Kd of 0.0824 nM.
The same measure, in the same setting: then B17, with 0.0903 nM; and B18, with 0.364 nM.
Still for that read-out and setting: then B19, with 0.125 nM; and B20, with 0.444 nM; and B21, with 0.0835 nM.
The same measure, in the same setting: next, B22: 0.329 nM; B23: 0.169 nM; B24: 0.415 nM.
The molecule B25 had a Kd of 0.384 nM.
Same read-out and setting: then B26, with 0.333 nM; and B27, with 0.251 nM.
Same read-out and setting: next, B28: 0.0721 nM.
For B29, the dissociation constant Kd is 0.382 nM.
B30 registered a Kd of 0.0213 nM.
As to B31, the Kd worked out at 0.302 nM.
On the same count and under the same terms, next, B32: 0.0835 nM; B33: 0.365 nM; B34: 0.0814 nM.
Same read-out and setting: next, B35: 0.465 nM; B36: 0.198 nM; B37: 0.0956 nM.

A further assay has the same target. The assay is described as above. The source holds these as a separate data set.
Regarding B38, the affinity, expressed as Kd, was 0.521 nM.
Same read-out and setting: next, B39: 0.311 nM; B40: 0.0856 nM; B41: 0.0923 nM.
On to B42, for which binding was put at a Kd of 0.582 nM.

What is called Kd is the free concentration of one partner at which half of the binding sites on the other are occupied at equilibrium, for simple one-to-one binding. Low readings indicate a tighter complex, high ones a looser complex.

Source of the values: US20220002395A1 (FAPON BIOTECH, published 2022).
